Laboratory results taken from article PMC7466717, “PPARγ Transcription Deficiency Exacerbates High-Fat Diet-Induced Adipocyte Hypertrophy and Insulin Resistance in Mice” (Frontiers in Pharmacology, 2020).
Ends that are not written are not given here.

T1: H6-PPARγ CDE wild-type (human PPARγ, domains from DBD to the C-terminus, residues 103–477) (human, UniProt P37231-2 103-477)
T1 construct: Human PPARγ, CDE domains (DBD, hinge, LBD to the C-terminus), residues 103-477; a C-terminus at 477 fits the 477-residue PPARγ1 isoform; Expressed from pET24a as an N-terminal 6xHis fusion; also called H6-PPARγ CDE WT; PPARγ CDE WT; source: E. coli BL21(DE3), purified (Ni HiTrap HP, SP-Sepharose); not shown: His6, N-terminal, kept
T1 sequence (looked up): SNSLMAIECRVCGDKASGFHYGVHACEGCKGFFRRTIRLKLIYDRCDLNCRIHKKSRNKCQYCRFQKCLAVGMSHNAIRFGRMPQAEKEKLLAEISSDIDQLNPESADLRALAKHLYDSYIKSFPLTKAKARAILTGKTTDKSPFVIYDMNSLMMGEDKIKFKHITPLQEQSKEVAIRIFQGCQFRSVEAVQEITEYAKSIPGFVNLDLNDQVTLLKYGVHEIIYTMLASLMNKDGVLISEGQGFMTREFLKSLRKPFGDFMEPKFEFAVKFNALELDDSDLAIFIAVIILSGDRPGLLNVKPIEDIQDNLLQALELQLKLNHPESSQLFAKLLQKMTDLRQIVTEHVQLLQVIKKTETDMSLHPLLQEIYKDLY


Target: T1, H6-PPARγ CDE wild-type (human PPARγ, …)
Experiment: AlphaScreen or HTRF; 100 nM H6-PPARγ CDE, 100 nM biotin-labeled peptide, gradient doses of rosiglitazone; hexahistidine detection kit (Perkin-Elmer); 50 mmol/L MOPS, 50 mmol/L NaF, 0.05 mmol/L CHAPS, 0.1 mg/ml bovine serum albumin, pH 7.4
Details: both partners purified

Binder | binding result
QEPVSPKKKENALLRYLLDKDDTKD (also: biotin label, position not given here) [biotin-labeled SRC2-3 coactivator peptide] | binds
GHSFADPASNLGLEDIIRKALMGSF (also: biotin label, position not given here, not the gene NCOR2/SMRT) [biotin-labeled NCoR-2 corepressor peptide] | binds
SPSSHSSLTERHKILHRLLQEGSP (also: biotin label, position not given here) [biotin-labeled SRC1-2 coactivator peptide] | binds
